Results reported in paper PMC12432413.

Biological target: CP* (calprotectin, S100A8 C42S / S100A9 C3S heterodimer) (UniProt P05109)
Test: crystal structure; Ca2+-loaded CP* with 0.7 equivalents of Zn2+; 20 mM Tris pH 7.5, 100 mM NaCl, 2 mM MgCl2; hanging drop, 20°C, 1.0M sodium citrate (pH 5.2), 28% MPD; 1.87 Å

CP* (calprotectin, S100A8 C42S / S100A9 C3S heterodimer) (from UniProt P05109 1-87; P06702 5-112) (complex)
stoichiometry N: 2
